Test results taken from patent publication US20260146091A1.
pIC50: −log10 of the molar value.

Legend:
[1] = target: mPDL-1 (mouse) (UniProt Q9EP73); test: mPD-1/mPD-L1 binding inhibition
[2] = target: mPD-1 (mouse) (UniProt Q02242); test: mPD-1/mPD-L1 binding inhibition
mPD-1 (mouse), sequence (Q02242 25-169): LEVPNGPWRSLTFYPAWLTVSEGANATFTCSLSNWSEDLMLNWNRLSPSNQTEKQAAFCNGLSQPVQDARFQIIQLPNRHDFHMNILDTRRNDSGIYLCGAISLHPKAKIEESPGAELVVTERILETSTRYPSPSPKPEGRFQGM

mPDL-1 (mouse), sequence (Q9EP73 19-239): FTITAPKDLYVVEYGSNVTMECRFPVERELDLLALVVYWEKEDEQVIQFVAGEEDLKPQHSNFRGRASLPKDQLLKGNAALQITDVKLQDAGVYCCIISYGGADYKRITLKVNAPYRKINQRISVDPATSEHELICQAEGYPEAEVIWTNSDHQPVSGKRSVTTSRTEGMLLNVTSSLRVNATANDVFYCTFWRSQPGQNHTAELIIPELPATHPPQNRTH

Row | pIC50 [1] | pIC50 [2] | Substance
1 | 8.96 |  | Clone 10F.9G2
2 |  | 7.51 | Clone RMPI-14
